# Measurements reported in patent US20200010571A1 (Janssen / Centocor, published 2020).
# “And” between values parts separate entries of the source, which are not always exact repeats. Identical values can stand only once.
# T1: mouse TNF-α (mouse, UniProt P06804 80-235)
# T1 sequence: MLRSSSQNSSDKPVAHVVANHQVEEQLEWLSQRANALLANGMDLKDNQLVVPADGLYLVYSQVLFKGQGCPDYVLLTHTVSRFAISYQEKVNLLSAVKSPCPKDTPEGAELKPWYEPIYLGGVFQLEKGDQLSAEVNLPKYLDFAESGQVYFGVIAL
# T2: rat TNF-α (rat, UniProt P16599 80-235)
# T2 sequence: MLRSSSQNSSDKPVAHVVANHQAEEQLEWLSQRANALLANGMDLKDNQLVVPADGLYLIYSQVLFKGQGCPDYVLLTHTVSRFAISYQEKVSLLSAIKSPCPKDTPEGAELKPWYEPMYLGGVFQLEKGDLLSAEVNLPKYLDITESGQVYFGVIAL
# T3: cynomolgus IL-17A (cynomolgus, UniProt Q16552 24-155 (human entry), limits assumed)
# T3 chain: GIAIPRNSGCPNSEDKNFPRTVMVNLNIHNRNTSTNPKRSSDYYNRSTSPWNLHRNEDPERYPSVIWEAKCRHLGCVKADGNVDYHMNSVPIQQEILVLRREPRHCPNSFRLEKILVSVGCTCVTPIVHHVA
# T4: mouse IL-17A (mouse, UniProt Q62386 26-158)
# T4 sequence: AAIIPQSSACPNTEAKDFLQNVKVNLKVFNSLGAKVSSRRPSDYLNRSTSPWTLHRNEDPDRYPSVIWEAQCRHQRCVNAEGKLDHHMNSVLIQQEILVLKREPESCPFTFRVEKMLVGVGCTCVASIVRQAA
# T5: rat IL-17A (rat, UniProt Q61453 18-150)
# T5 chain: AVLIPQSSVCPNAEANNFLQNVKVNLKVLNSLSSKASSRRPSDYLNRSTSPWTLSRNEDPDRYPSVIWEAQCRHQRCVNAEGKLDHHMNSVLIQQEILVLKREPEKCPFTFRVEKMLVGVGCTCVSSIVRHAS
# T6: recombinant human IL-17F (human, UniProt Q96PD4 31-163)
# T6 sequence: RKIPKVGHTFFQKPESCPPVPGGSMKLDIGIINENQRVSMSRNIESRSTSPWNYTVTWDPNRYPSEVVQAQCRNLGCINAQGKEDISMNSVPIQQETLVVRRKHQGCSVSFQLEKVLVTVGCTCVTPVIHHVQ
# What was measured:
# mouse TNF-α = target: T1, mouse TNF-α; assay: SPR (Biacore 3000), mAb captured by anti-IgG Fc, antigen in solution
# rat TNF-α = target: T2, rat TNF-α; assay: as above
# [1] = target: T7, rhTNF-α (recombinant human, soluble) (human, UniProt P01375 77-233); assay: cell-based or functional assay
# cynomolgus TNF-α [2] = target: T8, cynomolgus TNF-α (cynomolgus, UniProt P79337 77-233); assay: cell-based or functional assay
# [3] = target: T7, rhTNF-α (recombinant human, soluble); assay: cell-based or functional assay; remark: listed apart in the source
# cynomolgus TNF-α [4] = target: T8, cynomolgus TNF-α; assay: SPR (Biacore 3000), mAb captured by anti-IgG Fc, antigen in solution, 1:1 Langmuir
# cynomolgus IL-17A [5] = target: T3, cynomolgus IL-17A; assay: cell-based or functional assay
# [6] = target: T9, human IL-17A (recombinant) (human, UniProt Q16552 24-155); assay: competition ELISA: biotinylated rhIL-17A binding to plate-coated rhIL-17RA-Fc; Experiment 1; 95% CI 0.1171-0.1378
# T9 construct: Biotinylated in the IL-17RA ELISA; also called rhIL-17A
# mouse IL-17A = target: T4, mouse IL-17A; assay: SPR (Biacore 3000), mAb captured by anti-IgG Fc, antigen in solution, 1:1 Langmuir;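 note: run in PBS containing BSA and P20 at 25 °C, antigen injected at four dilutions, 3 min association, dissociation followed 20 min to 2 h, two independent experiments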
# cynomolgus IL-17A [7] = target: T3, cynomolgus IL-17A; assay: as above
# rat IL-17A = target: T5, rat IL-17A; assay: as above
# [8] = target: T10, recombinant human IL-17A/F heterodimer (human, UniProt Q16552 24-155; Q96PD4 31-163); assay: cell-based or functional assay
# [9] = target: T9, human IL-17A (recombinant); assay: competition ELISA: biotinylated rhIL-17A binding to plate-coated rhIL-17RA-Fc
# [10] = target: T9, human IL-17A (recombinant); assay: cell-based or functional assay
# [11] = target: T7, rhTNF-α (recombinant human, soluble); assay: SPR (Biacore 3000), mAb captured by anti-IgG Fc, antigen in solution, 25 C, 1:1 Langmuir
# recombinant human IL-17F = target: T6, recombinant human IL-17F; assay: binding to rhIL-17A in the absence or presence of IL-17F
# [12] = target: protease-resistant form of human transmembrane TNF-α (lacks amino acids Val1 to Pro12) overexpressed by K2 … (human, UniProt P01375 1-233); assay: cell-based or functional assay
# [13] = target: T10, recombinant human IL-17A/F heterodimer; assay: cell-based or functional assay; remark: listed apart in the source
# [14] = target: native (endogenous) human TNF-α (human, UniProt P01375 77-233); assay: cell-based or functional assay
# cynomolgus IL-17A [15] = target: T3, cynomolgus IL-17A; assay: cell-based or functional assay
# [16] = target: T9, human IL-17A (recombinant); assay: cell-based or functional assay; remark: listed apart in the source
# [17] = target: T9, human IL-17A (recombinant); assay: competition ELISA: biotinylated rhIL-17A binding to plate-coated rhIL-17RA-Fc; Experiment 2; 95% CI 0.1639-0.1853
# [18] = target: T7, rhTNF-α (recombinant human, soluble); assay: cell-based or functional assay; remark: listed apart in the source
# [19] = target: T9, human IL-17A (recombinant); assay: competition ELISA: biotinylated rhIL-17A binding to plate-coated rhIL-17RA-Fc; Experiment 3; 95% CI 0.2415-0.2667
# [20] = target: T9, human IL-17A (recombinant); assay: SPR (Biacore 3000), mAb captured by anti-IgG Fc, antigen in solution, 25 C, 1:1 Langmuir
binder,measurement,setting,value
"mAb 8759 (bispecific anti-TNF-α/IL-17A antibody, IgG1, YTE) (bispecific antibody) heavy 1: not shown light 1: not shown heavy 2: QVQLLESGGGLVQPGGSLRLSCAASGFTFSSYAMSWVRQAPGKGLEWVSTISLTSGFTYYADSVKGRFTISRDNSKNTLYLQMNSLRAEDTAVYYCARQLTLDVWGQGTLVTVSSASTKGPSVFPLAPSSKSTSGGTAALGCLVKDYFPEPVTVSWNSGALTSGVHTFPAVLQSSGLYSLSSVVTVPSSSLGTQTYICNVNHKPSNTKVDKKVEPKSCDKTHTCPPCPAPELLGGPSVFLFPPKPKDTLYITREPEVTCVVVDVSHEDPEVKFNWYVDGVEVHNAKTKPREEQYNSTYRVVSVLTVLHQDWLNGKEYKCKVSNKALPAPIEKTISKAKGQPREPQVYTLPPSREEMTKNQVSLTCLVKGFYPSDIAVEWESNGQPENNYKTTPPVLDSDGSFLLYSKLTVDKSRWQQGNVFSCSVMHEALHNHYTQKSLSLSPGK light 2: QSVLTQPPSVSVAPGQTARISCSGDNLGDKYANWYQQKPGQAPVLVIYDDIDRPSGIPERFSGSNSGNTATLTISGTQAEDEADYYCGSYDFFLGMIVFGGGTKLTVLGQPKAAPSVTLFPPSSEELQANKATLVCLISDFYPGAVTVAWKADSSPVKAGVETTTPSKQSNNKYAASSYLSLTPEQWKSHRSYSCQVTHEGSTVEKTVAPTECS",binding result,mouse TNF-α,no binding (tested: up to 100 nM)
same,binding result,rat TNF-α,no binding (tested: up to 100 nM)
same,IC50 (nM); WEHI-164 cells cytotoxicity mediated by soluble rhTNF-α; Experiment 1,[1],1.2 nM
same,IC50 (nM); WEHI-164 cells cytotoxicity mediated by soluble rhTNF-α; Experiment 2,[1],1.73 nM
same,IC50 (nM); WEHI-164 cells cytotoxicity mediated by soluble rhTNF-α; Experiment 3,[1],0.478 nM
same,IC50 (nM); Inhibition of cyno TNF-α mediated cytotoxicity in WEHI-164 cells; Experiment 1,cynomolgus TNF-α [2],3.82 nM
same,IC50 (nM); Inhibition of cyno TNF-α mediated cytotoxicity in WEHI-164 cells; Experiment 2,cynomolgus TNF-α [2],14.9 nM
same,IC50 (nM); Inhibition of cyno TNF-α mediated cytotoxicity in WEHI-164 cells; Experiment 3,cynomolgus TNF-α [2],7.32 nM
same,fold of IC50 against the parental anti-TNF-α antibodies mAb 9809 and mAb 6696; rhTNF-α-induced cytotoxicity in WEHI-164 cells,[3],~3 fold
same,Kd,cynomolgus TNF-α [4],0.44 nM and 0.16 nM
same,koff,cynomolgus TNF-α [4],0.000114 s⁻¹
same,kon,cynomolgus TNF-α [4],259000 M⁻¹ s⁻¹ and 710000 M⁻¹ s⁻¹
same,IC50 (µg/mL); Inhibition of cyno IL-17A mediated IL-6 production by NHDF; Experiment 3,cynomolgus IL-17A [5],0.0476 µg/mL
same,IC50,[6],0.127 µg/mL
same,Kd,mouse IL-17A,1.01 nM
same,koff,mouse IL-17A,0.00101 s⁻¹
same,kon,mouse IL-17A,999000 M⁻¹ s⁻¹
same,Kd,cynomolgus IL-17A [7],0.0265 nM and 0.0277 nM
same,koff,cynomolgus IL-17A [7],3.59e-05 s⁻¹ and 4.4e-05 s⁻¹
same,kon,cynomolgus IL-17A [7],1.35e+06 M⁻¹ s⁻¹ and 1.59e+06 M⁻¹ s⁻¹
same,Kd,rat IL-17A,13.9 nM
same,koff,rat IL-17A,0.00274 s⁻¹
same,kon,rat IL-17A,197000 M⁻¹ s⁻¹
same,IC50 (µg/mL); Inhibition of IL-17A/F mediated GROα production by NHDF; Experiment 1,[8],0.283 µg/mL
same,IC50 (µg/mL); Inhibition of IL-17A/F mediated GROα production by NHDF; Experiment 2,[8],0.46 µg/mL
same,IC50 (µg/mL); Inhibition of IL-17A/F mediated GROα production by NHDF; Experiment 3,[8],0.435 µg/mL
same,fold IC50 against the parental anti-IL-17A antibodies mAb 4782 and mAb 7206,[9],~3 fold
same,IC50 (µg/mL); Inhibition of native IL-17A mediated IL-6 production by NHDF; Experiment 1,[10],0.0478 µg/mL
same,IC50 (µg/mL); Inhibition of native IL-17A mediated IL-6 production by NHDF; Experiment 2,[10],0.038 µg/mL
same,IC50 (µg/mL); Inhibition of native IL-17A mediated IL-6 production by NHDF; Experiment 3,[10],0.0608 µg/mL
same,Kd,[11],0.0232 nM and 0.0192 nM
same,koff,[11],4.07e-05 s⁻¹ and 3.76e-05 s⁻¹
same,kon,[11],1.75e+06 M⁻¹ s⁻¹ and 1.96e+06 M⁻¹ s⁻¹
same,binding result,recombinant human IL-17F,no binding
same,"IC50 (nM); KYM-1D4 cells, cytotoxicity mediated by membrane bound human TNF-α; Experiment 1",[12],0.653 nM
same,"IC50 (nM); KYM-1D4 cells, cytotoxicity mediated by membrane bound human TNF-α; Experiment 2",[12],0.883 nM
same,"IC50 (nM); KYM-1D4 cells, cytotoxicity mediated by membrane bound human TNF-α; Experiment 3",[12],0.3 nM
same,IC50 (µg/mL); Inhibition of IL-17A/F mediated IL-6 production by NHDF; Experiment 1,[13],0.117 µg/mL
same,IC50 (µg/mL); Inhibition of IL-17A/F mediated IL-6 production by NHDF; Experiment 2,[13],0.133 µg/mL
same,IC50 (µg/mL); Inhibition of IL-17A/F mediated IL-6 production by NHDF; Experiment 3,[13],0.102 µg/mL
same,"IC50 (nM); KYM-1D4 cells, cytotoxicity mediated by endogenous soluble TNF-α; Experiment 1",[14],0.283 nM
same,"IC50 (nM); KYM-1D4 cells, cytotoxicity mediated by endogenous soluble TNF-α; Experiment 2",[14],0.294 nM
same,"IC50 (nM); KYM-1D4 cells, cytotoxicity mediated by endogenous soluble TNF-α; Experiment 3",[14],0.143 nM
same,IC50 (µg/mL); Inhibition of cyno IL-17A mediated GROα production by NHDF; Experiment 3,cynomolgus IL-17A [15],0.142 µg/mL
same,IC50 (µg/mL); Inhibition of native IL-17A mediated GROα production by NHDF; Experiment 1,[16],0.0755 µg/mL
same,IC50 (µg/mL); Inhibition of native IL-17A mediated GROα production by NHDF; Experiment 2,[16],0.0692 µg/mL
same,IC50 (µg/mL); Inhibition of native IL-17A mediated GROα production by NHDF; Experiment 3,[16],0.0653 µg/mL
same,IC50,[17],0.174 µg/mL
same,"IC50 (nM); KYM-1D4 cells, cytotoxicity mediated by soluble rhTNF-α; Experiment 1",[18],0.13 nM
same,"IC50 (nM); KYM-1D4 cells, cytotoxicity mediated by soluble rhTNF-α; Experiment 2",[18],0.261 nM
same,"IC50 (nM); KYM-1D4 cells, cytotoxicity mediated by soluble rhTNF-α; Experiment 3",[18],0.147 nM
same,IC50,[19],0.254 µg/mL
same,Kd,[20],0.0244 nM and 0.0389 nM
same,koff,[20],4.36e-05 s⁻¹ and 3.74e-05 s⁻¹
same,kon,[20],1.78e+06 M⁻¹ s⁻¹ and 961000 M⁻¹ s⁻¹
